In series [1] the target is AcrVIB1-His (R. anatipestifer). In words: MST.
The target in series [2] is AcrVIB1 (R. anatipestifer). In words: SEC-MALS. Background: In gel filtration, larger molecules generally elute earlier.
Series [3] has as its target AcrVIB1 (R. anatipestifer). In words: other fluorescence titration.
Series [4] addresses T1, PbuCas13b (UniProt E6K398 1-1127).
T1 sequence: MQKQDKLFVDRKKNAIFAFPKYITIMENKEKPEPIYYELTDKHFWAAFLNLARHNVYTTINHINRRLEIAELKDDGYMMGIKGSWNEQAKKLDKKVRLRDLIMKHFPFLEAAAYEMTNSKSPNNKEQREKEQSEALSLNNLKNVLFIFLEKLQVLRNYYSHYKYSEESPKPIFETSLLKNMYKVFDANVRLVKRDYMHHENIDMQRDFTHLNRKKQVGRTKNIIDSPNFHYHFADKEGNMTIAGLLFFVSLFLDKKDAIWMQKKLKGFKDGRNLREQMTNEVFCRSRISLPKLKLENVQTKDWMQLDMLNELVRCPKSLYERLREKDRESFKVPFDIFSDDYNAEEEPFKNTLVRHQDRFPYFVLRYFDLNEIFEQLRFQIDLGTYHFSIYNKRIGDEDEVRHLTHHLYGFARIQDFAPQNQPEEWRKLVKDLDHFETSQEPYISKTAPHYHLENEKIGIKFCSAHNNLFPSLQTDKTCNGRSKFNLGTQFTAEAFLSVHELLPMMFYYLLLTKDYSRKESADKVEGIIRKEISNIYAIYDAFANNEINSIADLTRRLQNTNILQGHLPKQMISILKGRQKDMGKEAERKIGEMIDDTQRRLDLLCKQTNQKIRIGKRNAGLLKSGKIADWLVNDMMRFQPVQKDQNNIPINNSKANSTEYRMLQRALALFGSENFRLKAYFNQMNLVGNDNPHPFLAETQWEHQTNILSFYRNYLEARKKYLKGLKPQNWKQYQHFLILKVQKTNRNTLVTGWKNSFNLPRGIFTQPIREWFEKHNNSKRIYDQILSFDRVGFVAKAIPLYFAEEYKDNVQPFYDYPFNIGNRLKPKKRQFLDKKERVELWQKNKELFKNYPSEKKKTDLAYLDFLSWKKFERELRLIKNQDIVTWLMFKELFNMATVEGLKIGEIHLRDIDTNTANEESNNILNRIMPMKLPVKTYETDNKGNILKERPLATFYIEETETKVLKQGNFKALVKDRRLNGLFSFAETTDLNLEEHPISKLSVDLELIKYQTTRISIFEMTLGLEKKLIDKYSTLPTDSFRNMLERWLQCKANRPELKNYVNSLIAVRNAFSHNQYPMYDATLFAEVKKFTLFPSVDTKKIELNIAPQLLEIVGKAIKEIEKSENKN
In words: MST.

Series [5] has as its target T1, PbuCas13b. Put plainly: MST. This is another data set of the same source.

Read-outs that look alike come from different tables or passages of the source.

By Kd is commonly meant the constant that tells how readily two partners part at equilibrium. A higher Kd goes with weaker binding. Usually stoichiometry N stands for a count of units in the complex or per binding partner.

PbuCas13b (enzyme) returned a Kd in series [1] of 44 nM. In series [2], “PbuCas13b Helical-2 domain (residues 579 - 747) (domain or fragment)” returned a stoichiometry N of 1. The Kd in series [3] was 251 nM.

B1: crRNA-1 processed (KW-RNA-002) (structured_RNA)
RNA: CGUCGCCGUCCAGCUCGACCAGGAUGGGAAGUUGCAUCUGCCUUCUUUUUGAAAGGUAAAAACAAC
As to B1, the Kd in the series with PbuCas13b [4] was around 1000 nM.

B2: crRNA-1 processed / target RNA 1 (KW-RNA-005) (mixed)
RNA 1: CGUCGCCGUCCAGCUCGACCAGGAUGGGAAGUUGCAUCUGCCUUCUUUUUGAAAGGUAAAAACAAC
RNA 2: ACUGGCGUUGUUCCCAUCCUGGUCGAGCUGGACGGCGACGUAAACGGCCA
Regarding B2, binding with PbuCas13b [5] was put at a Kd of 85 nM. That is a double-digit nanomolar value.

The values are drawn from publication doi:10.1101/2024.11.17.623997.
